According to patent US20160272683A1 (Novo Nordisk, published 2016):
Numbered stars: 1 amine (or outer) side, 2 acyl side, 3 side chain; on linkers, the order of the positions; unused ones are H or OH. * marks the point of attachment. C20 diacid = O=C(O)CCCCCCCCCCCCCCCCCCC(=O)*; C18 diacid = O=C(O)CCCCCCCCCCCCCCCCC(=O)*; γGlu = O=C(O)[C@H](CCC(=O)[*:2])N[*:1]; AEEA = NCCOCCOCC(=O)O

Experiments:
[1] = target: T1, human amylin 3(a) receptor (human calcitonin receptor co-expressed with RAMP-3) (human, UniProt P30988 25-474; O60896 24-148, limits assumed); experiment: cell-based or functional assay
T1 sequence (looked up) 1: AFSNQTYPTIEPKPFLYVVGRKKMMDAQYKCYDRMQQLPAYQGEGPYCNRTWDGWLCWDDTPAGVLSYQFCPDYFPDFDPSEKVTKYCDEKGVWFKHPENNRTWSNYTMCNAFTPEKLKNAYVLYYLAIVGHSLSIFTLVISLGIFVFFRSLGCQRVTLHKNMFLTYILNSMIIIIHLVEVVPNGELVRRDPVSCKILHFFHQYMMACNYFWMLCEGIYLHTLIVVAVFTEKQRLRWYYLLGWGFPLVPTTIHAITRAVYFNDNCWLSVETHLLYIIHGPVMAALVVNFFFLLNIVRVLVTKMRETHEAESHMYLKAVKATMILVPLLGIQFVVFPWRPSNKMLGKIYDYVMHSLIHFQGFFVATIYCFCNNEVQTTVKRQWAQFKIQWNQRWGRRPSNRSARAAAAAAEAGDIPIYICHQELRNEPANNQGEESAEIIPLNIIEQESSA
T1 sequence (looked up) 2: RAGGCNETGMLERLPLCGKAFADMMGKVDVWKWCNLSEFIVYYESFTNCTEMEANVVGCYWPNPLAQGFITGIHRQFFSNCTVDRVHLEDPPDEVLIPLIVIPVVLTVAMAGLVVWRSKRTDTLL

[2] = target: T2, human calcitonin receptor (human, UniProt P30988 25-474); experiment: cell-based or functional assay
T2 sequence (looked up): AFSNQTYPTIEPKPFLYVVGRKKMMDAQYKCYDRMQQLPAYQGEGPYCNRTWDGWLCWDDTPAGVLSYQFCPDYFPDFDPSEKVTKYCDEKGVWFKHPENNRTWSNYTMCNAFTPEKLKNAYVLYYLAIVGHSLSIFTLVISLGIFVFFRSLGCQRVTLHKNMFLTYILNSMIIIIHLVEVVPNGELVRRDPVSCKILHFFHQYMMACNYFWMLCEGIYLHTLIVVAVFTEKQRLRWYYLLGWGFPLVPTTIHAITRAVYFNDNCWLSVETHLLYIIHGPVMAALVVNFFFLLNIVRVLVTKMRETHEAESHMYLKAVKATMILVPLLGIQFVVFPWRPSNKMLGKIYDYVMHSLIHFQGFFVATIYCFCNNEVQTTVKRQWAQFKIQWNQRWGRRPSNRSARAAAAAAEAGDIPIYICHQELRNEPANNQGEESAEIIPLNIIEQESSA

Row | Binder | hAmylin-R funct. EC50 (pM) [1] [pM] | hCTR funct. EC50 (pM) [2] [pM]
1 | {C20 diacid-γGlu}-ASGLSTLVLGRLSQELHELQTYPRTETGSQTY-NH2 (SMILES CC(C)C[C@H](NC(=O)CNC(=O)[C@H](CO)NC(=O)[C@H](C)NC(=O)CC[C@H](NC(=O)CCCCCCCCCCCCCCCCCCC(=O)O)C(=O)O)C(=O)N[C@@H](CO)C(=O)N[C@H](C(=O)N[C@@H](CC(C)C)C(=O)N[C@H](C(=O)N[C@@H](CC(C)C)C(=O)NCC(=O)N[C@@H](CCCNC(=N)N)C(=O)N[C@@H](CC(C)C)C(=O)N[C@@H](CO)C(=O)N[C@@H](CCC(N)=O)C(=O)N[C@@H](CCC(=O)O)C(=O)N[C@@H](CC(C)C)C(=O)N[C@@H](Cc1c[nH]cn1)C(=O)N[C@@H](CCC(=O)O)C(=O)N[C@@H](CC(C)C)C(=O)N[C@@H](CCC(N)=O)C(=O)N[C@H](C(=O)N[C@@H](Cc1ccc(O)cc1)C(=O)N1CCC[C@H]1C(=O)N[C@@H](CCCNC(=N)N)C(=O)N[C@H](C(=O)N[C@@H](CCC(=O)O)C(=O)N[C@H](C(=O)NCC(=O)N[C@@H](CO)C(=O)N[C@@H](CCC(N)=O)C(=O)N[C@H](C(=O)N[C@@H](Cc1ccc(O)cc1)C(N)=O)[C@@H](C)O)[C@@H](C)O)[C@@H](C)O)[C@@H](C)O)C(C)C)[C@@H](C)O) [[N-terminal(C20 diacid-gGlu), des1, 4G, 8L, 9V, 15Q, 21Q, 23Y, 30S, 31Q, 32T, 33Y]mimylin] | 52 | 40
2 | {C20 diacid-γGlu}-LSGLSTAVLGRLSAELHELSTYPRTETGSGTY-NH2 (SMILES CC(C)C[C@H](NC(=O)CC[C@H](NC(=O)CCCCCCCCCCCCCCCCCCC(=O)O)C(=O)O)C(=O)N[C@@H](CO)C(=O)NCC(=O)N[C@@H](CC(C)C)C(=O)N[C@@H](CO)C(=O)N[C@H](C(=O)N[C@@H](C)C(=O)N[C@H](C(=O)N[C@@H](CC(C)C)C(=O)NCC(=O)N[C@@H](CCCNC(=N)N)C(=O)N[C@@H](CC(C)C)C(=O)N[C@@H](CO)C(=O)N[C@@H](C)C(=O)N[C@@H](CCC(=O)O)C(=O)N[C@@H](CC(C)C)C(=O)N[C@@H](Cc1c[nH]cn1)C(=O)N[C@@H](CCC(=O)O)C(=O)N[C@@H](CC(C)C)C(=O)N[C@@H](CO)C(=O)N[C@H](C(=O)N[C@@H](Cc1ccc(O)cc1)C(=O)N1CCC[C@H]1C(=O)N[C@@H](CCCNC(=N)N)C(=O)N[C@H](C(=O)N[C@@H](CCC(=O)O)C(=O)N[C@H](C(=O)NCC(=O)N[C@@H](CO)C(=O)NCC(=O)N[C@H](C(=O)N[C@@H](Cc1ccc(O)cc1)C(N)=O)[C@@H](C)O)[C@@H](C)O)[C@@H](C)O)[C@@H](C)O)C(C)C)[C@@H](C)O) [[N-terminal(C20 diacid-gGlu), des1, 2L, 4G, 9V, 21S, 23Y, 30S, 31G, 32T, 33Y]mimylin] | 24 | 28
3 | {C18 diacid}-EASELSTAALGRLSAELHEIATLPRTETGPESP-NH2 (SMILES CC[C@H](C)[C@H](NC(=O)[C@H](CCC(=O)O)NC(=O)[C@H](Cc1c[nH]cn1)NC(=O)[C@H](CC(C)C)NC(=O)[C@H](CCC(=O)O)NC(=O)[C@H](C)NC(=O)[C@H](CO)NC(=O)[C@H](CC(C)C)NC(=O)[C@H](CCCNC(=N)N)NC(=O)CNC(=O)[C@H](CC(C)C)NC(=O)[C@H](C)NC(=O)[C@H](C)NC(=O)[C@@H](NC(=O)[C@H](CO)NC(=O)[C@H](CC(C)C)NC(=O)[C@H](CCC(=O)O)NC(=O)[C@H](CO)NC(=O)[C@H](C)NC(=O)[C@H](CCC(=O)O)NC(=O)CCCCCCCCCCCCCCCCC(=O)O)[C@@H](C)O)C(=O)N[C@@H](C)C(=O)N[C@H](C(=O)N[C@@H](CC(C)C)C(=O)N1CCC[C@H]1C(=O)N[C@@H](CCCNC(=N)N)C(=O)N[C@H](C(=O)N[C@@H](CCC(=O)O)C(=O)N[C@H](C(=O)NCC(=O)N1CCC[C@H]1C(=O)N[C@@H](CCC(=O)O)C(=O)N[C@@H](CO)C(=O)N1CCC[C@H]1C(N)=O)[C@@H](C)O)[C@@H](C)O)[C@@H](C)O) [[N-terminal(C18 diacid), 20I]mimylin] | 6 | 5
4 | {C18 diacid-γGlu-AEEA-AEEA}-ASGLSTAVLGRLSQELHELQTYPRTETGSGTY-NH2 (SMILES CC(C)C[C@H](NC(=O)CNC(=O)[C@H](CO)NC(=O)[C@H](C)NC(=O)COCCOCCNC(=O)COCCOCCNC(=O)CC[C@H](NC(=O)CCCCCCCCCCCCCCCCC(=O)O)C(=O)O)C(=O)N[C@@H](CO)C(=O)N[C@H](C(=O)N[C@@H](C)C(=O)N[C@H](C(=O)N[C@@H](CC(C)C)C(=O)NCC(=O)N[C@@H](CCCNC(=N)N)C(=O)N[C@@H](CC(C)C)C(=O)N[C@@H](CO)C(=O)N[C@@H](CCC(N)=O)C(=O)N[C@@H](CCC(=O)O)C(=O)N[C@@H](CC(C)C)C(=O)N[C@@H](Cc1c[nH]cn1)C(=O)N[C@@H](CCC(=O)O)C(=O)N[C@@H](CC(C)C)C(=O)N[C@@H](CCC(N)=O)C(=O)N[C@H](C(=O)N[C@@H](Cc1ccc(O)cc1)C(=O)N1CCC[C@H]1C(=O)N[C@@H](CCCNC(=N)N)C(=O)N[C@H](C(=O)N[C@@H](CCC(=O)O)C(=O)N[C@H](C(=O)NCC(=O)N[C@@H](CO)C(=O)NCC(=O)N[C@H](C(=O)N[C@@H](Cc1ccc(O)cc1)C(N)=O)[C@@H](C)O)[C@@H](C)O)[C@@H](C)O)[C@@H](C)O)C(C)C)[C@@H](C)O) [[N-terminal(C18 diacid-gGlu-2xOEG), des1, 4G, 9V, 15Q, 21Q, 23Y, 30S, 31G, 32T, 33Y]mimylin] | 50 | 22
5 | {C20 diacid-γGlu}-ASGLSTAVLGRLSQELHELQTYPPTETGSQTY-NH2 (SMILES CC(C)C[C@H](NC(=O)CNC(=O)[C@H](CO)NC(=O)[C@H](C)NC(=O)CC[C@H](NC(=O)CCCCCCCCCCCCCCCCCCC(=O)O)C(=O)O)C(=O)N[C@@H](CO)C(=O)N[C@H](C(=O)N[C@@H](C)C(=O)N[C@H](C(=O)N[C@@H](CC(C)C)C(=O)NCC(=O)N[C@@H](CCCNC(=N)N)C(=O)N[C@@H](CC(C)C)C(=O)N[C@@H](CO)C(=O)N[C@@H](CCC(N)=O)C(=O)N[C@@H](CCC(=O)O)C(=O)N[C@@H](CC(C)C)C(=O)N[C@@H](Cc1c[nH]cn1)C(=O)N[C@@H](CCC(=O)O)C(=O)N[C@@H](CC(C)C)C(=O)N[C@@H](CCC(N)=O)C(=O)N[C@H](C(=O)N[C@@H](Cc1ccc(O)cc1)C(=O)N1CCC[C@H]1C(=O)N1CCC[C@H]1C(=O)N[C@H](C(=O)N[C@@H](CCC(=O)O)C(=O)N[C@H](C(=O)NCC(=O)N[C@@H](CO)C(=O)N[C@@H](CCC(N)=O)C(=O)N[C@H](C(=O)N[C@@H](Cc1ccc(O)cc1)C(N)=O)[C@@H](C)O)[C@@H](C)O)[C@@H](C)O)[C@@H](C)O)C(C)C)[C@@H](C)O) [[N-terminal(C20 diacid-gGlu), des1, 4G, 9V, 15Q, 21Q, 23Y, 25P, 30S, 31Q, 32T, 33Y]mimylin] | 70 | 57
6 | {C20 diacid-γGlu}-ASGLSTATLGRLSQELHELQTYPRTETGSGTY-NH2 [[N-terminal(C20 diacid-gGlu), des1, 4G, 9T, 15Q, 21Q, 23Y, 30S, 31G, 32T, 33Y]mimylin] | 40 | 34
7 | {C20 diacid-γGlu-AEEA-AEEA}-ASGLSTAVLGRLSQELHELQTYPRTETGSGTY-NH2 (SMILES CC(C)C[C@H](NC(=O)CNC(=O)[C@H](CO)NC(=O)[C@H](C)NC(=O)COCCOCCNC(=O)COCCOCCNC(=O)CC[C@H](NC(=O)CCCCCCCCCCCCCCCCCCC(=O)O)C(=O)O)C(=O)N[C@@H](CO)C(=O)N[C@H](C(=O)N[C@@H](C)C(=O)N[C@H](C(=O)N[C@@H](CC(C)C)C(=O)NCC(=O)N[C@@H](CCCNC(=N)N)C(=O)N[C@@H](CC(C)C)C(=O)N[C@@H](CO)C(=O)N[C@@H](CCC(N)=O)C(=O)N[C@@H](CCC(=O)O)C(=O)N[C@@H](CC(C)C)C(=O)N[C@@H](Cc1c[nH]cn1)C(=O)N[C@@H](CCC(=O)O)C(=O)N[C@@H](CC(C)C)C(=O)N[C@@H](CCC(N)=O)C(=O)N[C@H](C(=O)N[C@@H](Cc1ccc(O)cc1)C(=O)N1CCC[C@H]1C(=O)N[C@@H](CCCNC(=N)N)C(=O)N[C@H](C(=O)N[C@@H](CCC(=O)O)C(=O)N[C@H](C(=O)NCC(=O)N[C@@H](CO)C(=O)NCC(=O)N[C@H](C(=O)N[C@@H](Cc1ccc(O)cc1)C(N)=O)[C@@H](C)O)[C@@H](C)O)[C@@H](C)O)[C@@H](C)O)C(C)C)[C@@H](C)O) [[N-terminal(C20 diacid-gGlu-2xOEG), des1, 4G, 9V, 15Q, 21Q, 23Y, 30S, 31G, 32T, 33Y]mimylin] | 89 | 52
8 | {C20 diacid-γGlu}-ASGLSTAVLGRLSQELHELQTYPRTETGSATY-NH2 (SMILES CC(C)C[C@H](NC(=O)CNC(=O)[C@H](CO)NC(=O)[C@H](C)NC(=O)CC[C@H](NC(=O)CCCCCCCCCCCCCCCCCCC(=O)O)C(=O)O)C(=O)N[C@@H](CO)C(=O)N[C@H](C(=O)N[C@@H](C)C(=O)N[C@H](C(=O)N[C@@H](CC(C)C)C(=O)NCC(=O)N[C@@H](CCCNC(=N)N)C(=O)N[C@@H](CC(C)C)C(=O)N[C@@H](CO)C(=O)N[C@@H](CCC(N)=O)C(=O)N[C@@H](CCC(=O)O)C(=O)N[C@@H](CC(C)C)C(=O)N[C@@H](Cc1c[nH]cn1)C(=O)N[C@@H](CCC(=O)O)C(=O)N[C@@H](CC(C)C)C(=O)N[C@@H](CCC(N)=O)C(=O)N[C@H](C(=O)N[C@@H](Cc1ccc(O)cc1)C(=O)N1CCC[C@H]1C(=O)N[C@@H](CCCNC(=N)N)C(=O)N[C@H](C(=O)N[C@@H](CCC(=O)O)C(=O)N[C@H](C(=O)NCC(=O)N[C@@H](CO)C(=O)N[C@@H](C)C(=O)N[C@H](C(=O)N[C@@H](Cc1ccc(O)cc1)C(N)=O)[C@@H](C)O)[C@@H](C)O)[C@@H](C)O)[C@@H](C)O)C(C)C)[C@@H](C)O) [[N-terminal(C20 diacid-gGlu), des1, 4G, 9V, 15Q, 21Q, 23Y, 30S, 31A, 32T, 33Y]mimylin] | 53 | 52
